Patent US6841385B2, “Transcription factor E2F DNA-binding domain inhibitor peptides and their use” (Topotarget UK Limited, priority 1999, dated 2005)
Ends that are not written are not given here. Peptide text beside a SMILES is read from it.

What was measured:
recombinant E2F1 and DP1 = target: T1, recombinant E2F1 and DP1 (Homo sapiens, UniProt Q01094); test: Band shift assay with recombinant E2F1 and DP1, B-myb E2F-binding site as probe; conditions: for IC50: B-myb E2F-binding site as probe, read-out: IC50, inhibition of DNA binding; for inhibition: SEQ ID NO: 2 Alanine-scanning
T1 construct: Purified E2F1 N1-His (64-301) and DP1 N2-GST (84-249) were incubated at 10 μg/ml; His; made in house; host or cells: E. coli BL21 DE3 (pET28b) for E2F1
T1 sequence (Q01094 64-301): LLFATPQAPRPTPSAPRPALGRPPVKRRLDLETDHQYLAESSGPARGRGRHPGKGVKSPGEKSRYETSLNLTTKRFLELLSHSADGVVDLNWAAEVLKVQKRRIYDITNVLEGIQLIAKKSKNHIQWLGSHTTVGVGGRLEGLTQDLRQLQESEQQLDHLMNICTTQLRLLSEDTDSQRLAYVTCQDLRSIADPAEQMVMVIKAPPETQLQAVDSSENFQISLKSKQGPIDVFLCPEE
T1 sequence (Q14186 84-249 partner): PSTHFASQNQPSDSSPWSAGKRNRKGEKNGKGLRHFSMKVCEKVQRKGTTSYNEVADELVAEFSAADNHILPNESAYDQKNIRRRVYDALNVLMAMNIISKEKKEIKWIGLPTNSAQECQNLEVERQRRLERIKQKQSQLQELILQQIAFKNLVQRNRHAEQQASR
Description: N-terminal fragments of human E2F1 (aa 64-301), E2F2 (aa 69-306), E2F3 (aa 128-356), E2F4 (aa 1-198), E2F5 (aa 42-233) were cloned into bacterial expression vector pET28b (Novagen) and were purified from BL21 DE3 cells by immobilised metal-affinity chromatography. A N-terminal fragment of DP1 (aa 85-249) was expressed as GST fusion protein and purified by glutathione-affinity chromatography.
Purified E2F1 N1-His (64-301) and DP1 N2-GST (84-249) were incubated at 10 μg/ml in a buffer containing 10 mM HEPES, […], 1 mM EDTA, […], 33 mg/ml BSA and 0.1 μg of sonicated salmon sperm for 10 minutes on ice. ^32P-labelled probe was added and the reaction mixture was incubated at room temperature for 20 minutes. Probes were labelled by filling-in 5′ overhanging ends of 4-7 bases. Samples were run on 4% non denaturing polyacrylamide gel in 0.5% TBE at 4° C. Gels were exposed to X-ray films. Nuclear extract (3 μg) was incubated in 17 μl buffer containing 0.3 M NaCl, 0.4 M Tris pH 7.9, 100 mM EDTA, 0.4 M DTT, 13% glycerol, 1 μg of sonicated salmon sperm on ice. The samples were then incubated for 10 minutes at 30° C. and cooled on ice. ^32P-labelled probe was added, the reaction mixtures were incubated for another 10 minutes at 30° C. and then cooled on ice.
• B-myb: (5′-[…]) (SEQ ID NO:16) • NF-Y: 5′-ATTTTTCTGATTTGGTTAA (SEQ ID NO:17) • Spl: 5′-ATGGGGCGGAGA (SEQ ID NO:18) • ATF: 5′-[…] (SEQ ID NO:19) Introduction of Peptides into Mammalian Cells
The inhibitory potential of the peptides on E2F function was analysed in band shift assays with recombinant E2F1 and DP1. […] The IC50 concentrations for the 3 peptides were in the range of 50-100 μM. Inhibition to various extends was also observed using recombinant fragments of E2F2, E2F3, E2F4, E2F5, respectively. Approximately 100-fold lower IC50 values were found with a branched molecule consisting of 4 copies of SEQ ID NO:2 linked by MAP (multiple antigen peptide).

HL60 cells [1] = test: Nuclease-laddering assay (DNA laddering) in HL60 cells; type: cell-based
Description: Treated cells were collected, washed with PBS, resuspended in lysis buffer (50 mM Tris pH 7.9, 100 mM EDTA, pH 8, 100 mM NaCl, 1% SDS) and 500 μg/ml proteinase K and incubated at 55° C. for 18 h. Cells were then incubated with […] for 1 hour at 37° C., genomic DNA was purified and examined by agarose gel electrophoresis.
(§1) Effects became visible after 5-24 hours defending on the concentration of the peptide.

[2] = system: E2F4/ras (derived from primary rat embryo fibroblasts); test: BrDU proliferation assay, E2F4/ras cells; type: cell-based; conditions: 24 hrs, dose-dependent
Description: (§2) Four tumor cell lines U2OS (osteosarcoma), C33A (cervical carcinoma), HeLa (cervical carcinoma) and E2F4/ras (derived from primary rat embryo fibroblasts) were treated with the branched peptide MAP-4-SEQ ID NO:2-TAT or mutant control peptide MAP-4-SEQ ID NO:39-TAT for 24 hrs. Cell proliferation was measured using the BrDU proliferation assay from Boehringer Mannheim (Cat No. 1 647 229).

U2OS (osteosarcoma) = test: BrDU proliferation assay, U2OS cells; type: cell-based; conditions: 24 hrs, dose-dependent
Description: as §2

HL60 cells [3] = test: Apoptosis, staining of HL60 cells with Heochst 33342 propidium iodide; type: cell-based
Description: as §1

[4] = system: C33A (cervical carcinoma); test: BrDU proliferation assay, C33A cells; type: cell-based; conditions: 24 hrs, dose-dependent
Description: as §2

HL60 cells [5] = test: Growth of HL60 cells treated with peptide; type: cell-based; conditions: HL60 cells, concentrations between 1-5 μM
Description: (§3) HeLa cells were grown in Dulbecco's Modified Eagle's Medium (DMEM) supplemented with fetal calf serum (FCS) and HL60 cells in RPMI 1640 supplemented with 10% FCS. Cells were treated with peptides in culture medium and incubated overnight before harvesting.
(§4) HeLa, 3T3, W138 cells were treated with varying concentration of MAP-4-SEQ ID NO:2-TAT and a control peptide MAP-4-SEQ ID NO:39-TAT wherein SEQ ID NO:39 is SEQ ID NO:2 but containing 2 alanine substitutions at positions 1 and 4, i.e. AVRAHF (SEQ ID NO:39) DNA replication was analysed by BrdU incorporation after 24 hours.
as §1

HeLa cells = test: BrdU incorporation cell proliferation assay, HeLa cells; type: cell-based; conditions: 24 hrs, dose-dependent
Description: as §3
The peptides were tested in further experiments for their effect on cell cycle progression and cell viability. For this purpose, the peptides were conjugated at their C-terminus to a cell penetrating HIV-Tat derived peptide (aa 48-60) (Fawell et al. (1994) Proc. Natl. Acad. Sci. USA 91, 664-668).
as §4, §2

CycA promoter = test: Transcription from the CycA promoter, HeLa cells transiently transfected with CycA-Luciferase construct; type: cell-based
Text: This finding is in agreement with the anti-repressor function of E2F in the CycA promoter, (Liu et al, Oncogene (1998), 16, 2957-2963).

[6] = target: T2, recombinant E2F1 N1-His (64-301) with DP1 N2-GST (84-249) (human, UniProt Q01094 64-301; Q14186 84-249); test: deletion analysis; grade of inhibition of E2F DNA binding (band shift)
T2 construct: range 64-301;range 84-249; Both proteins were incubated together at 10 ug/ml in the band shift assay with a 32P-labelled B-myb E2F-site probe; also called recombinant E2F1 and DP1; not shown: His tag from vector pET28b; GST fusion partner
T2 sequence (Q01094 64-301, chain 1 of 2): as the sequence (Q01094 64-301) above
T2 sequence (Q14186 84-249, chain 2 of 2): as the sequence (Q14186 84-249 partner) above

[7] = target: T2, recombinant E2F1 N1-His (64-301) with …; test: alanine scanning; grade of inhibition of E2F DNA binding (band shift)
Description: (§5) Probes were labelled by filling-in 5' overhanging ends of 4–7 bases. Samples were run on 4% non denaturing polyacrylamide gel in 0.5% TBE at 4° C. Gels were exposed to X-ray films. […] The samples were then incubated for 10 minutes at 30° C. and cooled on ice. ^32P-labelled probe was added, the reaction mixtures were incubated for another 10 minutes at 30° C. and then cooled on ice.

[8] = target: E2F in nuclear extracts from F9 embryonal carcinoma cells; test: band shift with F9 nuclear extract; inhibition of E2F DNA binding
[9] = target: E2F in HeLa cells (nuclear extracts; endogenous E2F in transfected HeLa cells); test: band shift with HeLa nuclear extract; inhibition of E2F DNA binding
[10] = target: T2, recombinant E2F1 N1-His (64-301) with …; test: band shift, recombinant E2F, inhibition of DNA binding
Description: Samples were run on 4% non denaturing polyacrylamide gel in 0.5% TBE at 4° C. Gels were exposed to X-ray films. […] The samples were then incubated for 10 minutes at 30° C. and cooled on ice. ^32P-labelled probe was added, the reaction mixtures were incubated for another 10 minutes at 30° C. and then cooled on ice.

[11] = target: E2F1 overexpressed in stable transfected 3T3 cells (nuclear extract) (UniProt Q01094 1-437, limits assumed); test: band shift, extract of 3T3 cells overexpressing E2F1; inhibition of DNA binding
Chain of E2F1 overexpressed in stable transfected 3T3 cells (nuclear extract) (Q01094 whole entry): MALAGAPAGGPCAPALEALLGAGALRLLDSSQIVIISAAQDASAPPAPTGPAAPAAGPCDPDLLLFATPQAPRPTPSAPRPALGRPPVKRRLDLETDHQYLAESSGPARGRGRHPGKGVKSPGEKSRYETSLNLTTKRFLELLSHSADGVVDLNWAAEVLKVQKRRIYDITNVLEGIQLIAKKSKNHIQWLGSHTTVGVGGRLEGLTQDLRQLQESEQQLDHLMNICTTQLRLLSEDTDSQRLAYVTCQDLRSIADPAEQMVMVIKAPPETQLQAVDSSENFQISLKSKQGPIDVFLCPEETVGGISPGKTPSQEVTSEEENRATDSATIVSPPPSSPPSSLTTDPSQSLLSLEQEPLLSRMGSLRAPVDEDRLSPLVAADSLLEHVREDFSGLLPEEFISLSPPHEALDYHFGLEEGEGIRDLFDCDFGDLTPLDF
Description: as §5

[12] = target: E2F2 overexpressed in stable transfected 3T3 cells (nuclear extract) (UniProt Q14209 1-437, limits assumed); test: band shift, extract of 3T3 cells overexpressing E2F2; inhibition of DNA binding
Chain of E2F2 overexpressed in stable transfected 3T3 cells (nuclear extract) (Q14209 whole entry): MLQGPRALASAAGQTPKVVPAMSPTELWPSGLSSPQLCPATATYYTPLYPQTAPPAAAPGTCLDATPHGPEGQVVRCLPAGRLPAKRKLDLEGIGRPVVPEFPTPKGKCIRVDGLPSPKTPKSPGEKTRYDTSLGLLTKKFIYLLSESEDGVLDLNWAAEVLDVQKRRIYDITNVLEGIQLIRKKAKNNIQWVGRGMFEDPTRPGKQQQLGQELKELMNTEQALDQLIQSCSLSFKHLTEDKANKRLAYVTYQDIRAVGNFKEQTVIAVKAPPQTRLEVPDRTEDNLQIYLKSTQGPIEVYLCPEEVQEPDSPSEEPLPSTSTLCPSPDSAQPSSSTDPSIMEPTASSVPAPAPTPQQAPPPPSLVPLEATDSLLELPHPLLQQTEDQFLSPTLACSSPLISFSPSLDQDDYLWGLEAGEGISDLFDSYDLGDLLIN
Description: as §5

[13] = target: E2F5 overexpressed in stable transfected 3T3 cells (nuclear extract) (UniProt Q15329 1-346, limits assumed); test: band shift, extract of 3T3 cells overexpressing E2F5; inhibition of DNA binding
Chain of E2F5 overexpressed in stable transfected 3T3 cells (nuclear extract) (Q15329 whole entry): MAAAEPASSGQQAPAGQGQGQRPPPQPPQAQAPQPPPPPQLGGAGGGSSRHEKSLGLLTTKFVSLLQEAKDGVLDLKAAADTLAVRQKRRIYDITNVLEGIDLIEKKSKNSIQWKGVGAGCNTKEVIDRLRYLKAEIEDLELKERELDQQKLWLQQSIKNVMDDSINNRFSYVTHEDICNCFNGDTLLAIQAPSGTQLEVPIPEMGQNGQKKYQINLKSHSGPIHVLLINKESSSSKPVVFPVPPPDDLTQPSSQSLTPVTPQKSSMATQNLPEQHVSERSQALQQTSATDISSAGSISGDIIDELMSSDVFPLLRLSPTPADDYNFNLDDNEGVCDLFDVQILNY
Description: as §5

[14] = target: E2F3 overexpressed in stable transfected 3T3 cells (nuclear extract) (UniProt O00716 1-465, limits assumed); test: band shift, extract of 3T3 cells overexpressing E2F3; inhibition of DNA binding
Chain of E2F3 overexpressed in stable transfected 3T3 cells (nuclear extract) (O00716 whole entry): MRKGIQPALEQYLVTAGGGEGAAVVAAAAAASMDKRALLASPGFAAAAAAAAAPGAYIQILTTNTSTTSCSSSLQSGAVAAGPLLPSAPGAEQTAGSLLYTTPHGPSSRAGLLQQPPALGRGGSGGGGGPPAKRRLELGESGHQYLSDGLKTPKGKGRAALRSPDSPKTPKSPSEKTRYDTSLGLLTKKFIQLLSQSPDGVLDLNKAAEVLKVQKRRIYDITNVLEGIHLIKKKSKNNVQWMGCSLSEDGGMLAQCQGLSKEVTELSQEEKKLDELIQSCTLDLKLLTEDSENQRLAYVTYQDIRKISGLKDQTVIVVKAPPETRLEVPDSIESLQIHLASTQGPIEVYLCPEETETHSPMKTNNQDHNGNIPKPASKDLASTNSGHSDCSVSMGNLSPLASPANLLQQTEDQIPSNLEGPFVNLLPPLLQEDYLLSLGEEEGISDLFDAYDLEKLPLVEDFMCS
Description: as §5

[15] = target: E2F4 overexpressed in stable transfected 3T3 cells (nuclear extract) (UniProt Q16254 2-413, limits assumed); test: band shift, extract of 3T3 cells overexpressing E2F4; inhibition of DNA binding
Chain of E2F4 overexpressed in stable transfected 3T3 cells (nuclear extract) (Q16254 2-413 limits assumed): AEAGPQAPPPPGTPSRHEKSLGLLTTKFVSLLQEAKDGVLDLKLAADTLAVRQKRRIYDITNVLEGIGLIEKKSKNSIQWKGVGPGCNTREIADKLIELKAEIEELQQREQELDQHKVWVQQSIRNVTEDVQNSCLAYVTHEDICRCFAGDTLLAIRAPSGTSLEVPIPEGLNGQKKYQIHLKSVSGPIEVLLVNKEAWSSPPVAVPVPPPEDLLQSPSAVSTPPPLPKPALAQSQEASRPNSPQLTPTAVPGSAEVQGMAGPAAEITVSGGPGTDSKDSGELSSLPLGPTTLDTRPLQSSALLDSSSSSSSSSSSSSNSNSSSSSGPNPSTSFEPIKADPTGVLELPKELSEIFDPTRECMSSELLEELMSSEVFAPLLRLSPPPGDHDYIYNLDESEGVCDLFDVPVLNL
Description: as §5

[16] = target: T2, recombinant E2F1 N1-His (64-301) with …; test: alanine scanning; grade of inhibition of E2F DNA binding (band shift); remark: listed apart in the source
Description: as §5

Molecule CC(C)[C@H](NC(=O)[C@@H](N)Cc1c[nH]c2ccccc12)C(=O)N[C@@H](CCCNC(=N)N)C(=O)N[C@@H](Cc1c[nH]c2ccccc12)C(=O)N[C@@H](Cc1c[nH]cn1)C(=O)N[C@@H](Cc1ccccc1)C(=O)O [SEQ ID NO:2, WVRWHF] (H-WVRWHF-OH) has an IC50 (recombinant E2F1 and DP1) of 50 to 100 µM.

With WVRWAF [SEQ2-A5] the inhibition (recombinant E2F1 and DP1) was 0.

Work on CC[C@H](C)[C@H](NC(=O)[C@H](CCCNC(=N)N)NC(=O)[C@H](CO)NC(=O)CN)C(=O)N[C@@H](CC(C)C)C(=O)N[C@H](C(=O)N[C@@H](Cc1ccccc1)C(=O)N[C@@H](CCCNC(=N)N)C(=O)N[C@@H](CO)C(=O)NCC(=O)N[C@@H](CO)C(=O)N[C@@H](Cc1c[nH]c2ccccc12)C(=O)N[C@@H](Cc1ccc(O)cc1)C(=O)N[C@@H](C)C(=O)N[C@@H](CO)C(=O)O)[C@@H](C)O [SEQ ID NO:5, GSRILTFRSGSWYAS] (H-GSRILTFRSGSWYAS-OH) yielded an IC50 (recombinant E2F1 and DP1) of 50 to 100 µM.

In the case of CC[C@H](C)[C@H](N)C(=O)N[C@@H](Cc1c[nH]c2ccccc12)C(=O)N[C@@H](CC(C)C)C(=O)N[C@@H](CO)C(=O)NCC(=O)N[C@@H](CC(C)C)C(=O)N[C@@H](CO)C(=O)N[C@@H](CCCNC(=N)N)C(=O)NCC(=O)N[C@H](C(=O)N[C@@H](Cc1c[nH]c2ccccc12)C(=O)N[C@H](C(=O)N[C@@H](CO)C(=O)N[C@@H](Cc1ccccc1)C(=O)N1CCC[C@H]1C(=O)O)C(C)C)C(C)C [SEQ ID NO:4, IWLSGLSRGVWVSFP] (H-IWLSGLSRGVWVSFP-OH), the IC50 (recombinant E2F1 and DP1) is reported as 50 to 100 µM.

For WVAWHF [SEQ2-A3], the inhibition (recombinant E2F1 and DP1) was 0.

WARWHF [SEQ2-A2] was tested, and the inhibition (recombinant E2F1 and DP1) was 0.

With “MAP-4-SEQ ID NO:39-TAT: control peptide; SEQ ID NO:39 is SEQ ID NO:2 with 2 alanine substitutions at positions 1 and 4, i.e. AVRAHF (not fully specified (N-terminus, C-terminus); also: MAP-4 branched core) [reference compound]” the DNA laddering (HL60 cells [1]) was “No effects”, the inhibition of proliferation [2] was “not displayed” and the inhibition of proliferation (U2OS (osteosarcoma)) was “not displayed”. The “hallmarks of apoptosis after staining” value (HL60 cells [3]) was “No effects”, the inhibition of proliferation [4] was “not displayed” and the “inhibition of cell proliferation / cell growth” value (HL60 cells [5]) was “no inhibitory effects”. The inhibition of proliferation (HeLa cells) was “not displayed” and the “effect on transcription from CycA-Luciferase construct” value (CycA promoter) was “No effect”.

RILTFRSGSWYAS [SEQ5-5 (3-15) (RILTFRSGSWYAS)]: binds [6].

B1: peptide SEQ ID NO:2 (WVRWHF) (peptide)
peptide: WVRWHF
notes: Synthetic peptide in the band shift assays
B1 was tested, and the binding result [7] was “binds”, the concentration without inhibition [8] was > 500 µM and the concentration without inhibition [9] was > 500 µM.

WVRWAF [SEQ2-A5 (WVRWAF)]: binds [7].

WARWHF [SEQ2-A2 (WARWHF)]: binds [7].

WVAWHF [SEQ2-A3 (WVAWHF)]: binds [7].

B2: MAP4-SEQ ID NO:2 (branched molecule consisting of 4 copies of SEQ ID NO:2 linked by MAP, multiple antigen peptide) (peptide)
peptide: WVRWHF
modifications: also: tetravalent MAP core: 4 copies joined by C-terminus to Lys2-Lys-X core
notes: Branched tetravalent peptide on a lysine MAP core
For B2, the “fold lower IC50 (against the unbranched peptides)” value [10] was ~100 fold, the IC50 [11] was ~30 µM and the IC50 [12] was ~30 µM. For the same molecule, the concentration at which inhibition of E2F-DNA binding was found [8] was 10 to 30 µM, the concentration at which inhibition of E2F-DNA binding was found [9] was 10 to 30 µM and the IC50 [13] was ~30 µM. It also gave an IC50 [14] of ~30 µM and an IC50 [15] of ~30 µM.

B3: peptide SEQ ID NO:5 (GSRILTFRSGSWYAS) (peptide)
peptide: GSRILTFRSGSWYAS
notes: as for B1
B3: binds [6].

GSRILTFRSGSWAAS [SEQ5-A13 (GSRILTFRSGSWAAS)]: binds [16].

GSAILTFRSGSWYAS [SEQ5-A3 (GSAILTFRSGSWYAS)]: binds [16].

SRILTFRSGSWY [SEQ5-8 (2-13) (SRILTFRSGSWY)]: binds [6].

Molecule GSRILTFRSGSWYAS [peptide SEQ ID NO:5 (…)] has an IC50 [8] of 100 µM and an IC50 [9] of 100 µM.

B4: MAP4-SEQ ID NO:5 (peptide)
peptide: GSRILTFRSGSWYAS
modifications: also: tetravalent MAP core: 4 copies joined by C-terminus to Lys2-Lys-X core
notes: as for B2
B4 gave an IC50 [11] of ~30 µM, an IC50 [12] of ~30 µM and an IC50 [8] of 10 µM. For the same molecule, the IC50 [9] was 10 µM, the IC50 [13] was ~30 µM and the IC50 [14] was ~30 µM. It also gave an IC50 [15] of ~30 µM.
